From US20230265151A1, “GIP/GLP1 CO-AGONIST COMPOUNDS” (priority 2020, published 2023)
*1 amine or outer side, *2 acyl side, *3 side chain or, on linkers, in order; H or OH if unused. Where no end group is shown, it is not given here. Side-chain parts run from the residue outwards. [ ]: non-standard residue; d: D form. The star is where a group is joined. αMePhe(2-F) = C[C@](N)(Cc1ccccc1F)C(=O)O; γGlu = O=C(O)[C@H](CCC(=O)[*:2])N[*:1]; C14 diacid = O=C(O)CCCCCCCCCCCCC(=O)*; αMeY = C[C@](N)(Cc1ccc(O)cc1)C(=O)O; αMeL = CC(C)C[C@](C)(N)C(=O)O; Orn = NCCC[C@H](N)C(=O)O; AEEA = NCCOCCOCC(=O)O; Aib = CC(C)(N)C(=O)O

What was measured:
[1] = target: T1, human GLP-1 receptor (human, UniProt P43220 24-463); assay: SPA competition vs [125I]-GLP-1, hGLP-1R membranes
T1 construct: whole, on cells; also called hGLP-1R; human glucagon-like peptide-1 receptor
Protocol: The binding buffer contains 25 mM HEPES, pH 7.4, 2.5 mM CaCl₂, 1 mM MgCl₂, 0.1% (w/v) bacitracin, 0.003% (w/v) TWEEN®-20, and Roche Complete™ Protease Inhibitors without EDTA.
(§1) Data are analyzed using four-parameter (curve maximum, curve minimum, IC₅₀, Hill slope) nonlinear regression routines (Genedata Screener, version 12.0.4, Genedata AG, Basal, Switzerland). […] Values for Kᵢ are reported as the geometric mean, with error expressed as the standard error of the mean (SEM) and n is equal to the number of independent replicates (determined in assays performed on different days). Geometric Means are calculated as follows: […]

[2] = target: T2, human GIP receptor (human, UniProt P48546 22-466); assay: SPA competition vs [125I]-GIP, hGIPR membranes
T2 construct: whole, on cells; also called hGIPR; human glucose-dependent insulinotropic polypeptide receptor
T2 sequence (looked up): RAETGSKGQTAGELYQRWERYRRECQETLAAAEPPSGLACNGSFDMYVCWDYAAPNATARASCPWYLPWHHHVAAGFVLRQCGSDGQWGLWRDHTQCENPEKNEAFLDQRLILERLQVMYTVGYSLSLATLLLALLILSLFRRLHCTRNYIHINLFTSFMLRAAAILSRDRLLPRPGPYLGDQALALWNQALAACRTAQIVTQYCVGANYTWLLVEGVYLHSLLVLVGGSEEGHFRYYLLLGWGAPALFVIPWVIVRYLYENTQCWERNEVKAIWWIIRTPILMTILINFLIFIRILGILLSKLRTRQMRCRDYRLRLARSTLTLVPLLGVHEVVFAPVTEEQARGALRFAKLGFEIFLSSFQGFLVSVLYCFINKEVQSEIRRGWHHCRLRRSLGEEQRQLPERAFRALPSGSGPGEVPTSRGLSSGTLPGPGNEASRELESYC
Protocol: The binding buffer contains 25 mM HEPES, pH 7.4, 2.5 mM CaCl₂, 1 mM MgCl₂, 0.1% (w/v) bacitracin, 0.003% (w/v) TWEEN®-20, and Roche Complete™ Protease Inhibitors without EDTA. […] Plates are sealed and mixed on a plate shaker (setting 6) for 1 minute and read with a PerkinElmer Trilux MicroBeta® scintillation counter after 2.5 to 12 hours of incubation/settling time at room temperature.
as §1

B1: Y-Aib-EGT-αMeF(2F)-TSD-4Pal-SI-αMeL-LD-Orn-K((2-[2-(2-Amino-ethoxy)-ethoxy]-acetyl)2-(γ-Glu)-CO-(CH2)12-CO2H)AQ-Aib-EFI-(D-Glu)-αMeY-LIEGK((2-[2-(2-Amino-ethoxy … (peptide)
peptide: YXEGTXTSDXSIXLDXKAQXEFIXXLIEGKPSSGAPPPS
modifications: Aib2, αMeF(2F)6, 4Pal10, αMeL13, Orn16, K17(Z1), Aib20, D-Glu24, αMeY25, K30(Z1), C-term NH2; Z1=AEEA2-(γ-Glu)-CO-(CH2)12-CO2H
Binder B1 has a Ki [1] of 8.41 nM and a Ki [2] of 0.0769 nM.

B2: Y-Aib-EGT-αMeF(2F)-TSD-4Pal-SK((2-[2-(2-Amino-ethoxy)-ethoxy]-acetyl)2-(γ-Glu)-CO-(CH2)12-CO2H)-αMeL-LD-Orn-K((2-[2-(2-Amino-ethoxy)-ethoxy]-acetyl)2-(γ-Glu)-CO … (peptide)
peptide: YXEGTXTSDXSKXLDXKAQXEFIXXLIEGGPSSGAPPPS
modifications: Aib2, αMeF(2F)6, 4Pal10, K12(Z1), αMeL13, Orn16, K17(Z1), Aib20, D-Glu24, αMeY25, C-term NH2; Z1=AEEA2-(γ-Glu)-CO-(CH2)12-CO2H
In the case of B2, the Ki [1] is reported as 3.01 nM and the Ki [2] is reported as 0.0972 nM.

B3: Y-Aib-EGT-αMeF(2F)-TSD-4Pal-SI-αMeL-LD-Orn-K((2-[2-(2-Amino-ethoxy)-ethoxy]-acetyl)2-(γ-Glu)-CO-(CH2)10-CH3)AQ-Aib-EFI-(D-Glu)-αMeY-LIK((2-[2-(2-Amino-ethoxy)-e … (peptide)
peptide: YXEGTXTSDXSIXLDXKAQXEFIXXLIKGGPSSGAPPPS
modifications: Aib2, αMeF(2F)6, 4Pal10, αMeL13, Orn16, K17(Z1), Aib20, D-Glu24, αMeY25, K28(Z1), C-term NH2; Z1=AEEA2-(γ-Glu)-CO-(CH2)10-CH3
For B3, the Ki [1] was 0.268 nM and the Ki [2] was 0.0415 nM.

B4: Y-Aib-EGT-αMeF(2F)-TSD-4Pal-SI-αMeL-LD-Orn-K((2-[2-(2-Amino-ethoxy)-ethoxy]-acetyl)2-(γ-Glu)-CO-(CH2)12-CO2H)AQ-Aib-K((2-[2-(2-Amino-ethoxy)-ethoxy]-acetyl)2-(γ … (peptide)
peptide: YXEGTXTSDXSIXLDXKAQXKFIXXLIEGGPSSGAPPPS
modifications: Aib2, αMeF(2F)6, 4Pal10, αMeL13, Orn16, K17(Z1), Aib20, K21(Z1), D-Glu24, αMeY25, C-term NH2; Z1=AEEA2-(γ-Glu)-CO-(CH2)12-CO2H
Binder B4 has a Ki [1] of 2.11 nM and a Ki [2] of 0.0629 nM.

B5: Y-Aib-EGT-αMeF(2F)-TSD-4Pal-SI-αMeL-LD-Orn-K((2-[2-(2-Amino-ethoxy)-ethoxy]-acetyl)2-(γ-Glu)-CO-(CH2)12-CO2H)AQ-Aib-EFI-(D-Glu)-αMeY-LIK((2-[2-(2-Amino-ethoxy)- … (peptide)
peptide: YXEGTXTSDXSIXLDXKAQXEFIXXLIKGGPSSGAPPPS
modifications: Aib2, αMeF(2F)6, 4Pal10, αMeL13, Orn16, K17(Z1), Aib20, D-Glu24, αMeY25, K28(Z1), C-term NH2; Z1=AEEA2-(γ-Glu)-CO-(CH2)12-CO2H
For B5, the Ki [1] was 3.18 nM and the Ki [2] was 0.0649 nM.

B6: Y-Aib-EGT-αMeF(2F)-TSD-4Pal-Aib-I-αMeL-LD-Orn-QAQ-Aib-K((2-[2-(2-Amino-ethoxy)-ethoxy]-acetyl)2-(γ-Glu)-CO-(CH2)12-CO2H)FI-(D-Glu)-αMeY-LIK((2-[2-(2-Amino-ethox … (peptide)
peptide: YXEGTXTSDXXIXLDXQAQXKFIXXLIKGGPSSGAPPPS
modifications: Aib2, αMeF(2F)6, 4Pal10, Aib11, αMeL13, Orn16, Aib20, K21(Z1), D-Glu24, αMeY25, K28(Z1), C-term NH2; Z1=AEEA2-(γ-Glu)-CO-(CH2)12-CO2H
In the case of B6, the Ki [1] is reported as 0.964 nM and the Ki [2] is reported as 0.064 nM.

B7: Y-Aib-EGT-αMeF(2F)-TSD-4Pal-Aib-I-αMeL-LD-Orn-QAQ-Aib-EFIK((2-[2-(2-Amino-ethoxy)-ethoxy]-acetyl)2-(γ-Glu)-CO-(CH2)12-CO2H)-αMeY-LIK((2-[2-(2-Amino-ethoxy)-etho … (peptide)
peptide: YXEGTXTSDXXIXLDXQAQXEFIKXLIKGGPSSGAPPPS
modifications: Aib2, αMeF(2F)6, 4Pal10, Aib11, αMeL13, Orn16, Aib20, K24(Z1), αMeY25, K28(Z1), C-term NH2; Z1=AEEA2-(γ-Glu)-CO-(CH2)12-CO2H
Work on B7 yielded a Ki [1] of 1.33 nM and a Ki [2] of 0.0375 nM.

B8: Y-Aib-EGT-αMeF(2F)-TSDV-Aib-I-αMeL-LD-Orn-K((2-[2-(2-Amino-ethoxy)-ethoxy]-acetyl)2-(γ-Glu)-CO-(CH2)12-CO2H)AQ-Aib-EFI-(D-Glu)-αMeY-LIEGGK((2-[2-(2-Amino-ethoxy … (peptide)
peptide: Y[Aib]EGT[αMePhe(2-F)]TSDV[Aib]I[αMeL]LD[Orn]K([AEEA-AEEA-γGlu-C14 diacid])AQ[Aib]EFI[dE][αMeY]LIEGGK([AEEA-AEEA-γGlu-C14 diacid])SSGAPPPS-NH2
modifications: N-terminus assumed
SMILES: CC[C@H](C)[C@H](NC(=O)[C@H](CC(C)C)NC(=O)[C@](C)(Cc1ccc(O)cc1)NC(=O)[C@@H](CCC(=O)O)NC(=O)[C@@H](NC(=O)[C@H](Cc1ccccc1)NC(=O)[C@H](CCC(=O)O)NC(=O)C(C)(C)NC(=O)[C@H](CCC(N)=O)NC(=O)[C@H](C)NC(=O)[C@H](CCCCNC(=O)COCCOCCNC(=O)COCCOCCNC(=O)CC[C@H](NC(=O)CCCCCCCCCCCCC(=O)O)C(=O)O)NC(=O)[C@H](CCCN)NC(=O)[C@H](CC(=O)O)NC(=O)[C@H](CC(C)C)NC(=O)[C@](C)(CC(C)C)NC(=O)[C@@H](NC(=O)C(C)(C)NC(=O)[C@@H](NC(=O)[C@H](CC(=O)O)NC(=O)[C@H](CO)NC(=O)[C@@H](NC(=O)[C@](C)(Cc1ccccc1F)NC(=O)[C@@H](NC(=O)CNC(=O)[C@H](CCC(=O)O)NC(=O)C(C)(C)NC(=O)[C@@H](N)Cc1ccc(O)cc1)[C@@H](C)O)[C@@H](C)O)C(C)C)[C@@H](C)CC)[C@@H](C)CC)C(=O)N[C@@H](CCC(=O)O)C(=O)NCC(=O)NCC(=O)N[C@@H](CCCCNC(=O)COCCOCCNC(=O)COCCOCCNC(=O)CC[C@H](NC(=O)CCCCCCCCCCCCC(=O)O)C(=O)O)C(=O)N[C@@H](CO)C(=O)N[C@@H](CO)C(=O)NCC(=O)N[C@@H](C)C(=O)N1CCC[C@H]1C(=O)N1CCC[C@H]1C(=O)N1CCC[C@H]1C(=O)N[C@@H](CO)C(N)=O
With B8 the Ki [1] was 1.26 nM and the Ki [2] was 0.126 nM.

B9: Y-Aib-EGT-αMeF(2F)-TSDV-αMeS-I-αMeL-LD-Orn-K((2-[2-(2-Amino-ethoxy)-ethoxy]-acetyl)2-(γ-Glu)-CO-(CH2)12-CO2H)AQ-Aib-EFI-(D-Glu)-αMeY-LIEGGK((2-[2-(2-Amino-ethox … (peptide)
peptide: YXEGTXTSDVXIXLDXKAQXEFIXXLIEGGKSSGAPPPS
modifications: Aib2, αMeF(2F)6, αMeS11, αMeL13, Orn16, K17(Z1), Aib20, D-Glu24, αMeY25, K31(Z1), C-term NH2; Z1=AEEA2-(γ-Glu)-CO-(CH2)12-CO2H
Work on B9 yielded a Ki [1] of 1.17 nM and a Ki [2] of 0.161 nM.
